In data set [1] the target is T1, alpha toxin (alpha-hemolysin) (Staphylococcus aureus, UniProt P09616 27-319). The data set can be described thus: SPR; […] (pH not stated); SPR temperature not stated; […]. As to conditions: protein: commercial; stem-loop (Mfold). For orientation: SPR reads the build-up and loss of mass on a sensor chip optically.
Data set [2] has as its target T1, alpha toxin (alpha-hemolysin). The data set can be described thus: SPR; assay 2; […] (pH not stated); SPR temperature not stated; […]. To be noted: protein: commercial; stem-loop (Mfold).
The target is the same in data set [3]. The data set can be described thus: SPR; assay 1; […] (pH not stated); SPR temperature not stated; […]. To be noted: protein: commercial; stem-loop (Mfold).
The target is the same in data set [4]. The data set can be described thus: […] (pH not stated); SPR temperature not stated; […]. As to conditions: protein: commercial; stem-loop (Mfold).
In the next data set the target is toxin B (UniProt P18177 2-2366). Described as above. To be noted: protein: commercial; stem-loop (Mfold).
toxin B, sequence (P18177 2-2366): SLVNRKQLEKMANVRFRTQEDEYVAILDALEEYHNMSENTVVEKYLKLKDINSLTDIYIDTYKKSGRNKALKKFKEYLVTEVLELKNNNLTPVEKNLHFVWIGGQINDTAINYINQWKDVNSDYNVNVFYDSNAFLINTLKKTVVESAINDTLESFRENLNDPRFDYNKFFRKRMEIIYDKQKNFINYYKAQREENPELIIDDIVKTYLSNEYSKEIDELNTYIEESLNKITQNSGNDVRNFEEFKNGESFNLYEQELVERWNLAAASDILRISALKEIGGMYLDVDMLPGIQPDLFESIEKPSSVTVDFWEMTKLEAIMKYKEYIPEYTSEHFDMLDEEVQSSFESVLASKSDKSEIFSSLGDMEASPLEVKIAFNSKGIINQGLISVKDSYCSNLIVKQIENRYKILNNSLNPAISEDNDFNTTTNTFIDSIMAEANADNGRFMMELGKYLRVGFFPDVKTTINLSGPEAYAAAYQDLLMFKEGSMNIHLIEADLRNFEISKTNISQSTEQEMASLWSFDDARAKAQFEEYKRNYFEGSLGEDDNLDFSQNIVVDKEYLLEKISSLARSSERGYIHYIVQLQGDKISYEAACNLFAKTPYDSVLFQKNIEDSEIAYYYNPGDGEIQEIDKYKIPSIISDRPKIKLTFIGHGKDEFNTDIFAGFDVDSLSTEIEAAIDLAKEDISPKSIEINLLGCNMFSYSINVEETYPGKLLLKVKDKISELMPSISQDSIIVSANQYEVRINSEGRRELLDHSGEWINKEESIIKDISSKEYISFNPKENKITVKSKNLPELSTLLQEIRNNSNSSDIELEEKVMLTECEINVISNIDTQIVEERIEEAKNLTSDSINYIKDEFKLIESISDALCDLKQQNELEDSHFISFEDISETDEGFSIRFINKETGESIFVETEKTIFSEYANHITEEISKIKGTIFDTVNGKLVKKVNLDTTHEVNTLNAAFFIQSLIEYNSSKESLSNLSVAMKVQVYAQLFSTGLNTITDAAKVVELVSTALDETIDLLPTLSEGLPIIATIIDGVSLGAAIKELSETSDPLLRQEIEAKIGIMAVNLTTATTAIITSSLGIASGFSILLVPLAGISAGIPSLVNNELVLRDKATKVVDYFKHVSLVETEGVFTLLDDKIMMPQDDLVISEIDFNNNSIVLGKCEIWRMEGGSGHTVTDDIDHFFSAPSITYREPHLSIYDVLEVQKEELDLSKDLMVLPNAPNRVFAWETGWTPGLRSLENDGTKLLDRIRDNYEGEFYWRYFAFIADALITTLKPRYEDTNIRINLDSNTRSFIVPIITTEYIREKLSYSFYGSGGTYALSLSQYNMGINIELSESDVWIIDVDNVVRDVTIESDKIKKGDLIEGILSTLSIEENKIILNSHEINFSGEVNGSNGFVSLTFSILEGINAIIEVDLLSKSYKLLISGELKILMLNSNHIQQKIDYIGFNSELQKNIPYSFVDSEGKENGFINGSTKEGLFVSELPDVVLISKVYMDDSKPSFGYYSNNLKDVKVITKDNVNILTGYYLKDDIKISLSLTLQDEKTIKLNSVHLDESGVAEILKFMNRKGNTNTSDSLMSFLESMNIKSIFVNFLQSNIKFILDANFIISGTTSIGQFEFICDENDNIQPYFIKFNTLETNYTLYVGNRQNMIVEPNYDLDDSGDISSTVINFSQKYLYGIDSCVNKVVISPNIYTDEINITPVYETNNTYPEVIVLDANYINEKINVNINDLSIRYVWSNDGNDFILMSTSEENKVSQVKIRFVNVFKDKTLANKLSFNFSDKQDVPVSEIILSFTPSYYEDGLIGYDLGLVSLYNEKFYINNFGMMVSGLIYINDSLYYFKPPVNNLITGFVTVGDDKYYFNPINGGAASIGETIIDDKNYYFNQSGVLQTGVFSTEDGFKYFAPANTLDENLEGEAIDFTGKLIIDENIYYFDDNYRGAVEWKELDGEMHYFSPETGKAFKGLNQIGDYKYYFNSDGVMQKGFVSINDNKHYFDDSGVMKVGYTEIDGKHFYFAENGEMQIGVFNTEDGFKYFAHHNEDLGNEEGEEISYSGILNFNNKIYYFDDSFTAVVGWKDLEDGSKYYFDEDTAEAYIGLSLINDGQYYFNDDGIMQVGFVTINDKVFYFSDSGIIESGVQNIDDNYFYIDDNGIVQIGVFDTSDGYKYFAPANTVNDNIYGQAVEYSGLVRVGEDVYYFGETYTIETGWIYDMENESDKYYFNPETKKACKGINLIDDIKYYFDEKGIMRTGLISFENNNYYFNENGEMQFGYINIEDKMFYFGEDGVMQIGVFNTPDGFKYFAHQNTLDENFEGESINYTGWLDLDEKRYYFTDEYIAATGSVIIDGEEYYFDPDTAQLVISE
The next data set concerns the target cholera toxin (UniProt P01555;P01556 19-258;22-124). The description is as above. To be noted: protein: commercial; copies: 1;5; stem-loop (Mfold).
For another data set, the target named is exotoxin A (UniProt P11439 26-638). The data set can be described thus: fluorescence plate binding; p = 0.004; […] (pH not stated); SPR temperature not stated; […]. As to conditions: protein: commercial; stem-loop (Mfold).
exotoxin A, sequence (P11439 26-638): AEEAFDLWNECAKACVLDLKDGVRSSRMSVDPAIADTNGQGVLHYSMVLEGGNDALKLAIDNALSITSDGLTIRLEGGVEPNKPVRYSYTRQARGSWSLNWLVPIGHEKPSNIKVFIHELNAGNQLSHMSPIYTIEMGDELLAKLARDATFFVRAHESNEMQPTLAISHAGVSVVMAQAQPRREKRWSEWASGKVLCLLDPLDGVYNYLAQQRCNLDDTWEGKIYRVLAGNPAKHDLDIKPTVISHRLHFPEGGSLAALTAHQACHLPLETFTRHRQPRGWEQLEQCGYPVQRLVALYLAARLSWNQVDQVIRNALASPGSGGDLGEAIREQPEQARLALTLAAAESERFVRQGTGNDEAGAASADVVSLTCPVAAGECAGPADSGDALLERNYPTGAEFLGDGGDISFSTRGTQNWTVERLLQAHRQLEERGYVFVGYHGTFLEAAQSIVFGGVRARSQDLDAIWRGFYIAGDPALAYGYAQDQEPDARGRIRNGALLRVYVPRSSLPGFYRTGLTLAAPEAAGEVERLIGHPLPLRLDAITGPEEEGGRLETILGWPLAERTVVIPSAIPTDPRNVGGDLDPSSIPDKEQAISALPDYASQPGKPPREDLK

As usually defined, the Kd is a measure of binding affinity in units of concentration. A high value points to a looser complex.

“And” between values parts separate entries of the source, which are not always exact repeats. Equal values may be shown once.

T1 sequence (P09616 27-319): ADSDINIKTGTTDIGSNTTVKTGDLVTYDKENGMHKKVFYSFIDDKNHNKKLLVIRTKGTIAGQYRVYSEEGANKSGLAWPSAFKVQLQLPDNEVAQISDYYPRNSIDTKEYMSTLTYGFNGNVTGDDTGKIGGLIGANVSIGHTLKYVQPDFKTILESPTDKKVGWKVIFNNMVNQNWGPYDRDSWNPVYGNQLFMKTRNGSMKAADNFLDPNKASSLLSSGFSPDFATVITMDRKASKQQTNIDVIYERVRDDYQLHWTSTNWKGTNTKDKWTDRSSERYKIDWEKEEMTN
cholera toxin, sequence (P01555 19-258, chain 1 of 2): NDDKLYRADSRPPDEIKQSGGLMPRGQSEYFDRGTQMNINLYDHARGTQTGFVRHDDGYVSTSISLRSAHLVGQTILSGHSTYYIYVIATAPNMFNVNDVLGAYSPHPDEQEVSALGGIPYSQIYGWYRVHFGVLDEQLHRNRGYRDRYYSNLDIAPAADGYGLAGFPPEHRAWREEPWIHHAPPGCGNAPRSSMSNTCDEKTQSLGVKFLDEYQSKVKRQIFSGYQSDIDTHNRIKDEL
cholera toxin, sequence (P01556 22-124, chain 2 of 2): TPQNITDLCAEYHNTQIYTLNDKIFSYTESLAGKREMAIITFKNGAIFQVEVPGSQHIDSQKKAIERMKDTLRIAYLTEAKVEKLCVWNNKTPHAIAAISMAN

B1: R12.06 (5'-amino-C6) (ssDNA)
DNA: TGTACCGTCTGAGCGATTCGTACGATTACTATAATTTCCTATCGTCCGACCGCCGTCAGCCAGTCAGTGTTAAGGAGTGC
modifications: 5' amino-C6
Take B1: the Kd in data set [1] is 93.7 nM and 90.7 nM; in data set [2], 88.7 nM; in data set [3], 102 nM.

B2: R12.06 (FAM) (ssDNA)
DNA: TGTACCGTCTGAGCGATTCGTACGATTACTATAATTTCCTATCGTCCGACCGCCGTCAGCCAGTCAGTGTTAAGGAGTGC
Regarding B2, the binding signal in data set [4] was 1 relative to alpha toxin; with toxin B it was 5 fold lower than alpha toxin; with cholera toxin, 1.5 fold lower than alpha toxin; in the data set with exotoxin A, 1.5 fold lower than alpha toxin.

Values taken from paper PMC4346865.
